According to the RNAGym collection of RNA variant scans (doi:10.7554/elife.80360):

B1: HDV Ribozyme (parent)
chain: GGCCGGCAUGGUCCCAGCCUCCUCGCUGGCGCCGGCUGGGCAACAUUCCGAGGGGACCGUCCCCUCGGUAAUGGCGAAUGGGACCCA

Variants of: B1
Assay: self-cleavage, relative activity (ratio to wild type); higher = more cleavage; co-transcriptional

Variant | self-cleavage
C7G U69A | 0.237
C7A C62U | 0.721
A8G A45G | 0.9
A8G U79C | 0.256
A8G U79A | 0.692
C7G G25A | 0.104
C7U G34C | 0.193
A8G G68A | 1.03
A8U C66A | 1.06
A8G C85G | 0.895
C7U G17U | 0.259
C7U G17C | 0
C7G U46C | 0
C7A C32A | 0.332
C7A C32U | 0.227
A8G C36U | 0.727
C7A C61A | 0.692
C7A C61G | 0.806
C7U G25C | 0.0378
C7G C48G | 0
C7A G68U | 0.623
C7A U12G | 0.237
A8C A43U | 0.289
A8G C18G | 0

Variant | self-cleavage
C7A G39U | 0.18
C7A G39A | 0.0739
A8G A83U | 0.246
C7U A70C | 0.923
C7U A70G | 0.831
A8G C41U | 0.917
C7A G74U | 0.201
C7A G74A | 0.026
C7U G50U | 0.864
A8C G68C | 0.604
C7U U27G | 0.431
C7U G76A | 1.09
C7U G76U | 0.755
A8C G17U | 0.287
C7U U47C | 0.482
A8G U12G | 0.712
A8C U20G | 0.175
A8U A42G | 0.111
A8U C13A | 0
A8U C13G | 0
A8U C14G | 0.237
A8G G40A | 1.08
A8C C61A | 0.931
A8C G55A | 0.636

Variant | self-cleavage
A8G G73U | 0.148
C7G A51G | 0.237
A8U A83C | 0
A8U A83G | 0.746
A8U A51U | 0.787
A8U A51G | 0.767
C7G C13U | 0.158
C7G C13G | 0.0554
C7U C61U | 0.831
A8U C61U | 0.739
A8U C61A | 0.831
C7G G59U | 0.237
C7U G59U | 0.812
C7U U60G | 0.831
C7U U60C | 1.26
A8G U9G | 0.831
C7G G68A | 0.0594
A8U C21A | 0
A8U A43G | 0.578
A8C C30A | 0.0462
A8C C30U | 0.415
C7G A8U | 0.104
C7G U37C | 0.399
C7G U37G | 0

Variant | self-cleavage
C7G G39A | 0.147
C7G G39C | 0
C7A G40A | 0.646
C7A G40U | 0.295
A8G G80C | 0.172
C7G G73A | 0.0639
C7A U46A | 0.287
C7A U46G | 0.0755
A8U A71C | 0.703
A8U A71G | 0.917
A8U A71U | 0.917
A8C U60G | 0.554
C7U A56G | 0.997
C7U A56C | 0.806
C7G C44U | 0.0462
C7U U69A | 0.718
A8G C13G | 0.0923
A8G C13U | 0
A8C G73U | 0.264
C7U C48G | 0.831
C7U C33U | 0.672
C7U C33G | 0.0536
A8C C44U | 0.199
A8G G82U | 0.369

Variant | self-cleavage
A8G C63U | 1.26
C7G C22U | 0.0898
C7G C22G | 0.0791
C7U G11U | 0.16
C7U G11A | 0.423
C7G U47C | 0.293
C7U G55C | 0.736
C7U G55A | 0.724
A8C C62U | 0.918
C7G G80A | 0.145
C7G U27C | 0.151
A8C C19A | 0.0449
A8C A87G | 0.674
A8C A87U | 0.847
C7A U9G | 0.396
C7U A45G | 0.72
C7A G53U | 0.544
C7A G53A | 0.642
C7G U79A | 0.123
A8G U20G | 0.151
A8G U20A | 0.151
A8U C64U | 1.11
A8G C19G | 0.0594
A8G C64G | 0.7

Variant | self-cleavage
A8G C64U | 1.07
C7A C24G | 0.0415
C7A U37A | 0.229
C7A U37C | 0.719
A8G G10A | 0.369
A8G G76A | 1.09
A8U C62A | 0.956
A8U C62U | 0.989
A8U C62G | 0.287
A8G U69A | 0.942
C7U C36A | 0.0405
C7U C36G | 0.104
A8C A78C | 0.302
A8G C49A | 0.939
C7U A77U | 0.151
C7U A77C | 0.196
C7U C75A | 0.177
C7U C75G | 0.0852
C7U U12G | 1.02
C7A G76A | 0.868
A8G C66U | 1.14
C7U A42G | 0.415
C7U C49U | 0.727
A8U C32U | 0.554

Variant | self-cleavage
A8U C84G | 0.462
A8C C32G | 0.185
A8C C32U | 0.538
A8C A16C | 1.07
C7A G50U | 0.475
A8C C36U | 0.712
C7A C66A | 0.539
C7U C15G | 0.536
A8U C22A | 0.0923
A8G C32A | 0.0852
C7G U60A | 0.317
C7U G31U | 0.575
A8U A16G | 0.684
A8U C86G | 0.554
A8U C86U | 0.997
C7U A83U | 0.0852
C7U A16C | 0.196
A8U C63G | 0.646
A8U C63U | 0.862
A8U C57G | 1.07
A8U C57A | 1.05
C7G G31A | 0.441
C7G G31C | 0.95
